“Also recorded” adds a separate entry of the source. Where two headings read alike, the source gives them in different places.
Legend:
P. aeruginosa strains = experiment: Checkerboard synergy with meropenem in 25% CAA and […] human serum (Table 16); format: cell-based, Pseudomonas aeruginosa; details: for FICI value (Run #1), with meropenem / FICI value (Run #2), with meropenem: 25% CAA and […] human serum
[1] = test system: P. aeruginosa PA20 recovered from rabbit lung homogenates; format: cell-based, Pseudomonas aeruginosa; details: for number of isolates with GN370 MIC 1 μg/mL / number of isolates with GN370 MIC 2 μg/mL: n=48
[2] = test system: Pseudomonas aeruginosa biofilm; experiment: MBEC in CAA supplemented with […] human serum (Table 14); format: cell-based
Protocol: Biofilms are then washed and treated with e.g., a 2-fold dilution series of the lysin in TSBg at e.g., 37° C. for 24 hours. After treatment, wells are washed, air-dried at e.g., 37° C. and stained with e.g., 0.05% crystal violet for 10 minutes.
Materials and methods: MICs were determined by broth microdilution in media supplemented with human serum and pulmonary surfactant ([…]®; Myoderm Clinical Supplies). Minimal biofilm eradicating concentrations (MBECs) were determined using standard methods. […] Fluorescence microscopy was performed after LIVE/DEAD staining (ThermoFisher) and TEM was performed.

[3] = test system: P. aeruginosa isolate CFS 1558 (PA20); format: in vivo; details: for Log10 CFU/g of vegetation: rabbit lung
Protocol: A rabbit pulmonary model was used to assess the efficacy of the GN370 lysin alone and in combination with an antibiotic (meropenem). Initially, rabbits were infected intratracheally with P. aeruginosa isolate CFS 1558 (PA20) (3×10^9 CFU). Treatment commenced 6 hours post-infection.

P. aeruginosa = experiment: MIC, modified CLSI broth microdilution in CAA medium without or with […] human serum (Table 4); format: cell-based, Pseudomonas aeruginosa; as to CAA/HuS MIC: CAA supplemented with 2.5% human serum
Excerpt: 2015. […] Clinical and Laboratory Standards Institute, Wayne, Pa.

[4] = test system: 15 P. aeruginosa isolates; experiment: MIC of GN370 in dog, human, rabbit and rat serum and CAAT; meropenem in CAMHB (Table 33); format: cell-based, Pseudomonas aeruginosa; details: for MIC90: 15 isolates; for MIC GN370: diluted CAAT media
[5] = test system: Pseudomonas aeruginosa strain CFS-1292 (meropenem resistant); details: strain CFS-1292; no added cations
Protocol: The activity of selected GN lysins and constructs in the presence of divalent cations was evaluated, and the impact of divalent cations at physiological concentrations was examined in the MIC assay format.

[6] = isolates from GN370 (3 mg/kg) + Meropenem (20 mg/kg) group
[7] = isolates from GN370 (30 mg/kg) + Meropenem (20 mg/kg) group
[8] = isolates from GN370 (30 mg/kg) group
[9] = isolates from Vehicle control group

B1: GN370: lysin-AMP construct: MIDR, FIRL and NPTH moieties N-terminal to GN202 lysin (SEQ ID NO: 44) (protein)
chain: MIDRFIRLNPTHGPRRPRRPGRRAPVRTSQRGIDLIKSFEGLRLSAYQDSVGVWTIGYGTTRGVTRYMTITVEQAERMLSNDIQRFEPELDRLAKVPLNQNQWDALMSFVYNLGAANLASSTLLDLLNKGDYQGAADQFPHWVNAGGKRLDGLVKRRAAERALFLEPLS
**Q.** Which results are given for B1?
**A.** synergy with meropenem (P. aeruginosa strains; FICI less than or equal to 0.5 = potent synergy): exhibited synergy with meropenem; FICI value (Run #1), with meropenem (P. aeruginosa strains; strain CFS 1292): 0.1875; FICI value (Run #2), with meropenem (P. aeruginosa strains; strain CFS 1292): 0.219; FICI value (Run #1), with meropenem (P. aeruginosa strains; strain CFS 1557 (PA19)): 0.1875; FICI value (Run #2), with meropenem (P. aeruginosa strains; strain CFS 1557 (PA19)): 0.240; FICI value (Run #1), with meropenem (P. aeruginosa strains; strain CFS 1558 (PA20)): 0.09375; FICI value (Run #2), with meropenem (P. aeruginosa strains; strain CFS 1558 (PA20)): 0.109; FICI value (Run #2), with meropenem (P. aeruginosa strains; strain CFS 1559 (PA21)): 0.438; FICI value (Run #2), with meropenem (P. aeruginosa strains; strain CFS 1560 (PA22)): 0.198; FICI value (Run #2), with meropenem (P. aeruginosa strains; strain CFS 1561 (PA23)): 0.240; FICI value (Run #2), with meropenem (P. aeruginosa strains; strain CFS 1562 (PA24)): 0.240; FICI value (Run #2), with meropenem (P. aeruginosa strains; strain CFS 1766 (ATCC 27853)): 0.156; ex vivo resistance / increase in MIC of isolates recovered from rabbit lung ([1]; all treatment groups of the rabbit pulmonary model): not observed; also recorded: no increase in MIC; number of isolates with GN370 MIC 1 μg/mL [1, 6]: 34; number of isolates with GN370 MIC 2 μg/mL [1, 6]: 14; number of isolates with GN370 MIC 2 μg/mL ([1]; isolates from GN370 (3 mg/kg) group): 16; number of isolates with GN370 MIC 1 μg/mL ([1]; isolates from GN370 (10 mg/kg) + Meropenem (20 mg/kg) group): 48; number of isolates with GN370 MIC 2 μg/mL ([1]; isolates from GN370 (10 mg/kg) group): 16; number of isolates with GN370 MIC 1 μg/mL [1, 7]: 35; number of isolates with GN370 MIC 2 μg/mL [1, 7]: 13; number of isolates with GN370 MIC 1 μg/mL [1, 8]: 16; number of isolates with GN370 MIC 2 μg/mL [1, 8]: 32; number of isolates with GN370 MIC 2 μg/mL ([1]; isolates from Meropenem (20 mg/kg) group): 16; number of isolates with GN370 MIC 2 μg/mL ([1]; isolates from Pre-treatment control group): 48; number of isolates with GN370 MIC 1 μg/mL [1, 9]: 13; number of isolates with GN370 MIC 2 μg/mL [1, 9]: 35; MBEC in CAA supplemented with […] human serum [2]: 1 µg/mL; Bacterial burden, Kidneys ([3]; GN370 3 mg/kg): 5.06 ± 1.05 log10 CFU/g; Bacterial burden, Lung 1 ([3]; GN370 3 mg/kg): 6.28 ± 1.12 log10 CFU/g; Bacterial burden, Lung 2 ([3]; GN370 3 mg/kg): 6.43 ± 1.01 log10 CFU/g; Bacterial burden, Spleen ([3]; GN370 3 mg/kg): 5.23 ± 1.25 log10 CFU/g; Bacterial burden, Kidneys ([3]; GN370 10 mg/kg): 3.46 ± 0.78 log10 CFU/g; Bacterial burden, Lung 1 ([3]; GN370 10 mg/kg): 6.63 ± 1.00 log10 CFU/g; Bacterial burden, Lung 2 ([3]; GN370 10 mg/kg): 5.53 ± 1.75 log10 CFU/g; Bacterial burden, Spleen ([3]; GN370 10 mg/kg): 3.76 ± 0.44 log10 CFU/g; reduction in CFUs in the lungs ([3]; GN370 alone, increasing concentrations, compared to pretreatment control): 4 log10; additional decrease of bacterial density in lung, kidney and spleen ([3]; GN-370 (10 mg/kg) in addition to meropenem, compared to meropenem or GN-370 alone): 2 log10 CFU/g; decrease of mean bacterial density in lungs ([3]; agent alone, compared to the starting CFU and the vehicle control group): about 2 log10 CFU/g; Log10 CFU/g of vegetation ([3]; GN370 3 mg/kg): 6.52 ± 1.01 Log10 CFU/g; Log10 CFU/g of vegetation ([3]; GN370 10 mg/kg): 6.25 ± 1.35 Log10 CFU/g; Log10 CFU/g of vegetation ([3]; GN370 30 mg/kg): 7.88 ± 0.50 Log10 CFU/g; tolerability in infected rabbits ([3]; tested doses): well tolerated at the tested doses; survival until the end of the study ([3]; treated infected rabbits): all treated infected animals survived until the end of the study; CAA MIC (P. aeruginosa; CAA medium, no human serum): 16000 µg/mL; CAA/HuS MIC (P. aeruginosa; CAA supplemented with […] human serum): 4000 µg/mL; MIC90 ([4]; dog serum): 4 µg/mL; MIC90 ([4]; human serum): 2 µg/mL; MIC90 ([4]; rabbit serum): 2 µg/mL; MIC90 ([4]; rat serum): 32 µg/mL; MIC GN370 ([4]; strain AR0231): 2 µg/mL; Serum MIC Dog ([4]; strain AR0231, dog serum): 2 µg/mL; Serum MIC Human ([4]; strain AR0231, human serum): 1 µg/mL; Serum MIC Rabbit ([4]; strain AR0231, rabbit serum): 1 µg/mL; Serum MIC Rat ([4]; strain AR0231, rat serum): 16 µg/mL; MIC GN370 ([4]; strain AR0241): 2 µg/mL; Serum MIC Dog ([4]; strain AR0241, dog serum): 1 µg/mL; Serum MIC Human ([4]; strain AR0241, human serum): 1 µg/mL; Serum MIC Rabbit ([4]; strain AR0241, rabbit serum): 1 µg/mL; Serum MIC Rat ([4]; strain AR0241, rat serum): 32 µg/mL; MIC GN370 ([4]; strain AR0246): 1 µg/mL; Serum MIC Dog ([4]; strain AR0246, dog serum): 4 µg/mL; Serum MIC Human ([4]; strain AR0246, human serum): 2 µg/mL; Serum MIC Rabbit ([4]; strain AR0246, rabbit serum): 2 µg/mL; Serum MIC Rat ([4]; strain AR0246, rat serum): 32 µg/mL; MIC GN370 ([4]; strain ATCC 25668): 0.5 µg/mL; Serum MIC Dog ([4]; strain ATCC 25668, dog serum): 2 µg/mL; Serum MIC Human ([4]; strain ATCC 25668, human serum): 1 µg/mL; Serum MIC Rabbit ([4]; strain ATCC 25668, rabbit serum): 2 µg/mL; Serum MIC Rat ([4]; strain ATCC 25668, rat serum): 16 µg/mL; MIC GN370 ([4]; strain ATCC 27853): 1 µg/mL; Serum MIC Dog ([4]; strain ATCC 27853, dog serum): 2 µg/mL; Serum MIC Human ([4]; strain ATCC 27853, human serum): 1 µg/mL; Serum MIC Rabbit ([4]; strain ATCC 27853, rabbit serum): 2 µg/mL; Serum MIC Rat ([4]; strain ATCC 27853, rat serum): 32 µg/mL; MIC GN370 ([4]; strain PA1): 0.5 µg/mL; Serum MIC Dog ([4]; strain PA1, dog serum): 1 µg/mL; Serum MIC Human ([4]; strain PA1, human serum): 2 µg/mL; Serum MIC Rabbit ([4]; strain PA1, rabbit serum): 2 µg/mL; Serum MIC Rat ([4]; strain PA1, rat serum): 16 µg/mL; MIC GN370 ([4]; strain PA2): 0.5 µg/mL; Serum MIC Dog ([4]; strain PA2, dog serum): 1 µg/mL; Serum MIC Human ([4]; strain PA2, human serum): 1 µg/mL; Serum MIC Rabbit ([4]; strain PA2, rabbit serum): 2 µg/mL; Serum MIC Rat ([4]; strain PA2, rat serum): 16 µg/mL; MIC GN370 ([4]; strain PA3): 1 µg/mL; Serum MIC Dog ([4]; strain PA3, dog serum): 2 µg/mL; Serum MIC Human ([4]; strain PA3, human serum): 2 µg/mL; Serum MIC Rabbit ([4]; strain PA3, rabbit serum): 2 µg/mL; Serum MIC Rat ([4]; strain PA3, rat serum): 16 µg/mL; MIC GN370 ([4]; strain PA19): 1 µg/mL; Serum MIC Dog ([4]; strain PA19, dog serum): 1 µg/mL; Serum MIC Human ([4]; strain PA19, human serum): 0.5 µg/mL; Serum MIC Rabbit ([4]; strain PA19, rabbit serum): 0.5 µg/mL; Serum MIC Rat ([4]; strain PA19, rat serum): 32 µg/mL; MIC GN370 ([4]; strain PA20): 1 to 2 µg/mL; Serum MIC Dog ([4]; strain PA20, dog serum): 2 µg/mL; Serum MIC Human ([4]; strain PA20, human serum): 1 µg/mL; Serum MIC Rabbit ([4]; strain PA20, rabbit serum): 2 µg/mL; Serum MIC Rat ([4]; strain PA20, rat serum): 32 µg/mL; MIC GN370 ([4]; strain PA22): 2 µg/mL; Serum MIC Dog ([4]; strain PA22, dog serum): 2 µg/mL; Serum MIC Human ([4]; strain PA22, human serum): 2 µg/mL; Serum MIC Rabbit ([4]; strain PA22, rabbit serum): 2 µg/mL; Serum MIC Rat ([4]; strain PA22, rat serum): 32 µg/mL; MIC GN370 ([4]; strain PA23): 2 µg/mL; Serum MIC Dog ([4]; strain PA23, dog serum): 2 µg/mL; Serum MIC Human ([4]; strain PA23, human serum): 1 µg/mL; Serum MIC Rabbit ([4]; strain PA23, rabbit serum): 2 µg/mL; Serum MIC Rat ([4]; strain PA23, rat serum): 32 µg/mL; MIC GN370 ([4]; strain PA24): 1 µg/mL; Serum MIC Dog ([4]; strain PA24, dog serum): 4 µg/mL; Serum MIC Human ([4]; strain PA24, human serum): 2 µg/mL; Serum MIC Rabbit ([4]; strain PA24, rabbit serum): 2 µg/mL; Serum MIC Rat ([4]; strain PA24, rat serum): 16 µg/mL; MIC GN370 ([4]; strain PA27): 0.5 µg/mL; Serum MIC Dog ([4]; strain PA27, dog serum): 2 µg/mL; Serum MIC Human ([4]; strain PA27, human serum): 2 µg/mL; Serum MIC Rabbit ([4]; strain PA27, rabbit serum): 2 µg/mL; Serum MIC Rat ([4]; strain PA27, rat serum): 16 µg/mL; MIC GN370 ([4]; strain PA453): 0.5 µg/mL; Serum MIC Dog ([4]; strain PA453, dog serum): 0.5 µg/mL; Serum MIC Human ([4]; strain PA453, human serum): 0.5 µg/mL; Serum MIC Rabbit ([4]; strain PA453, rabbit serum): 0.5 µg/mL; Serum MIC Rat ([4]; strain PA453, rat serum): 32 µg/mL; MIC in 25% CAA [5]: 4 µg/mL
